The source of these data is patent US20160053277A1, “Compositions Having Dicamba Decarboxylase Activity and Methods of Use” (PIONEER HI-BRED INTERNATIONAL, INC., priority 2013, published 2016).

This experiment in a line: Saturation mutagenesis of SEQ ID NO:109: dicamba decarboxylation activity of point mutants (carbon dioxide released).
The mark [1] stands for this setting: dicamba decarboxylation activity of point mutants of SEQ ID NO: 109, relative to unchanged template.
Setting [2] is: point mutation in SEQ ID NO: 109.

B1: R243A: point mutant of SEQ ID NO: 109 (protein)
chain: MAQGKVALEEHFAIPETLQDSAGFVPGDYWKELQHRLLDIQDTRLKLMDAHGIETMILSLNAPAVQAIPDRRKAIEIARRANDVLAEECAKRPDRFLAFAALPLQDPDAATEELQRCVNDLGFVGALVNGFSQEGDGQTPLYYDLPQYRPFWGEVEKLDVPFYLHPRNPLPQDSRIYDGHPWLLGPTWAFAQETAVHALRLMASGLFDEHPRLNIILGHMGEGLPYMMWRIDHRVAWVKLPPAYPAKRRFMDYFNENFHITTSGNFRTQTLIDAILEIGADRILFSTDWPFENIDHASDWFNATSIAEADRVKIGRTNARRLFKLDGA
modifications: Dicamba decarboxylase variant clone: DC.4.032
B1: the “Average Activity (Fold of SEQ ID NO: 109)” value reads like this: under setting [1], 1.8 Fold of SEQ ID NO: 109; under setting [2], 1.8 Fold of SEQ ID NO: 109.

B2: S298A: point mutant of SEQ ID NO: 109 (protein)
chain: MAQGKVALEEHFAIPETLQDSAGFVPGDYWKELQHRLLDIQDTRLKLMDAHGIETMILSLNAPAVQAIPDRRKAIEIARRANDVLAEECAKRPDRFLAFAALPLQDPDAATEELQRCVNDLGFVGALVNGFSQEGDGQTPLYYDLPQYRPFWGEVEKLDVPFYLHPRNPLPQDSRIYDGHPWLLGPTWAFAQETAVHALRLMASGLFDEHPRLNIILGHMGEGLPYMMWRIDHRVAWVKLPPRYPAKRRFMDYFNENFHITTSGNFRTQTLIDAILEIGADRILFSTDWPFENIDHAADWFNATSIAEADRVKIGRTNARRLFKLDGA
modifications: Dicamba decarboxylase variant clone: DC.4.032
Consider B2, for which the “Average Activity (Fold of SEQ ID NO: 109)” value is on record as 2.1 Fold of SEQ ID NO: 109 under setting [1] and 2.1 Fold of SEQ ID NO: 109 under setting [2].

B3: N302A: point mutant of SEQ ID NO: 109 (protein)
chain: MAQGKVALEEHFAIPETLQDSAGFVPGDYWKELQHRLLDIQDTRLKLMDAHGIETMILSLNAPAVQAIPDRRKAIEIARRANDVLAEECAKRPDRFLAFAALPLQDPDAATEELQRCVNDLGFVGALVNGFSQEGDGQTPLYYDLPQYRPFWGEVEKLDVPFYLHPRNPLPQDSRIYDGHPWLLGPTWAFAQETAVHALRLMASGLFDEHPRLNIILGHMGEGLPYMMWRIDHRVAWVKLPPRYPAKRRFMDYFNENFHITTSGNFRTQTLIDAILEIGADRILFSTDWPFENIDHASDWFAATSIAEADRVKIGRTNARRLFKLDGA
modifications: Dicamba decarboxylase variant clone: DC.4.032
For the molecule B3, the “Average Activity (Fold of SEQ ID NO: 109)” value runs as follows: under setting [1], 1.9 Fold of SEQ ID NO: 109; under setting [2], 1.9 Fold of SEQ ID NO: 109.

B4: D299A: point mutant of SEQ ID NO: 109 (protein)
chain: MAQGKVALEEHFAIPETLQDSAGFVPGDYWKELQHRLLDIQDTRLKLMDAHGIETMILSLNAPAVQAIPDRRKAIEIARRANDVLAEECAKRPDRFLAFAALPLQDPDAATEELQRCVNDLGFVGALVNGFSQEGDGQTPLYYDLPQYRPFWGEVEKLDVPFYLHPRNPLPQDSRIYDGHPWLLGPTWAFAQETAVHALRLMASGLFDEHPRLNIILGHMGEGLPYMMWRIDHRVAWVKLPPRYPAKRRFMDYFNENFHITTSGNFRTQTLIDAILEIGADRILFSTDWPFENIDHASAWFNATSIAEADRVKIGRTNARRLFKLDGA
modifications: Dicamba decarboxylase variant clone: DC.4.032
For the molecule B4, the “Average Activity (Fold of SEQ ID NO: 109)” value under setting [1] is listed as 2.0 Fold of SEQ ID NO: 109.

B5: G327Q: point mutant of SEQ ID NO: 109 (protein)
chain: MAQGKVALEEHFAIPETLQDSAGFVPGDYWKELQHRLLDIQDTRLKLMDAHGIETMILSLNAPAVQAIPDRRKAIEIARRANDVLAEECAKRPDRFLAFAALPLQDPDAATEELQRCVNDLGFVGALVNGFSQEGDGQTPLYYDLPQYRPFWGEVEKLDVPFYLHPRNPLPQDSRIYDGHPWLLGPTWAFAQETAVHALRLMASGLFDEHPRLNIILGHMGEGLPYMMWRIDHRVAWVKLPPRYPAKRRFMDYFNENFHITTSGNFRTQTLIDAILEIGADRILFSTDWPFENIDHASDWFNATSIAEADRVKIGRTNARRLFKLDQA
modifications: Dicamba decarboxylase variant clone: DC.4.032
Take B5: the “Average Activity (Fold of SEQ ID NO: 109)” value under setting [1] is recorded as 2.8 Fold of SEQ ID NO: 109 and the “Average Activity (Fold of SEQ ID NO: 109)” value under setting [2] is 2.8 Fold of SEQ ID NO: 109.

B6: D20F: point mutant of SEQ ID NO: 109 (protein)
chain: MAQGKVALEEHFAIPETLQFSAGFVPGDYWKELQHRLLDIQDTRLKLMDAHGIETMILSLNAPAVQAIPDRRKAIEIARRANDVLAEECAKRPDRFLAFAALPLQDPDAATEELQRCVNDLGFVGALVNGFSQEGDGQTPLYYDLPQYRPFWGEVEKLDVPFYLHPRNPLPQDSRIYDGHPWLLGPTWAFAQETAVHALRLMASGLFDEHPRLNIILGHMGEGLPYMMWRIDHRVAWVKLPPRYPAKRRFMDYFNENFHITTSGNFRTQTLIDAILEIGADRILFSTDWPFENIDHASDWFNATSIAEADRVKIGRTNARRLFKLDGA
modifications: Dicamba decarboxylase variant clone: DC.4.032
Take B6: the “Average Activity (Fold of SEQ ID NO: 109)” value by setting is: under setting [1], 1.9 Fold of SEQ ID NO: 109; under setting [2], 1.9 Fold of SEQ ID NO: 109.

B7: A328R: point mutant of SEQ ID NO: 109 (protein)
chain: MAQGKVALEEHFAIPETLQDSAGFVPGDYWKELQHRLLDIQDTRLKLMDAHGIETMILSLNAPAVQAIPDRRKAIEIARRANDVLAEECAKRPDRFLAFAALPLQDPDAATEELQRCVNDLGFVGALVNGFSQEGDGQTPLYYDLPQYRPFWGEVEKLDVPFYLHPRNPLPQDSRIYDGHPWLLGPTWAFAQETAVHALRLMASGLFDEHPRLNIILGHMGEGLPYMMWRIDHRVAWVKLPPRYPAKRRFMDYFNENFHITTSGNFRTQTLIDAILEIGADRILFSTDWPFENIDHASDWFNATSIAEADRVKIGRTNARRLFKLDGR
modifications: Dicamba decarboxylase variant clone: DC.4.032
Regarding B7, the “Average Activity (Fold of SEQ ID NO: 109)” value under setting [1] is reported as 3.0 Fold of SEQ ID NO: 109.

B8: A303E: point mutant of SEQ ID NO: 109 (protein)
chain: MAQGKVALEEHFAIPETLQDSAGFVPGDYWKELQHRLLDIQDTRLKLMDAHGIETMILSLNAPAVQAIPDRRKAIEIARRANDVLAEECAKRPDRFLAFAALPLQDPDAATEELQRCVNDLGFVGALVNGFSQEGDGQTPLYYDLPQYRPFWGEVEKLDVPFYLHPRNPLPQDSRIYDGHPWLLGPTWAFAQETAVHALRLMASGLFDEHPRLNIILGHMGEGLPYMMWRIDHRVAWVKLPPRYPAKRRFMDYFNENFHITTSGNFRTQTLIDAILEIGADRILFSTDWPFENIDHASDWFNETSIAEADRVKIGRTNARRLFKLDGA
modifications: Dicamba decarboxylase variant clone: DC.4.032
In the case of B8, the “Average Activity (Fold of SEQ ID NO: 109)” value under setting [1] is 2.3 Fold of SEQ ID NO: 109.

B9: S298T: point mutant of SEQ ID NO: 109 (protein)
chain: MAQGKVALEEHFAIPETLQDSAGFVPGDYWKELQHRLLDIQDTRLKLMDAHGIETMILSLNAPAVQAIPDRRKAIEIARRANDVLAEECAKRPDRFLAFAALPLQDPDAATEELQRCVNDLGFVGALVNGFSQEGDGQTPLYYDLPQYRPFWGEVEKLDVPFYLHPRNPLPQDSRIYDGHPWLLGPTWAFAQETAVHALRLMASGLFDEHPRLNIILGHMGEGLPYMMWRIDHRVAWVKLPPRYPAKRRFMDYFNENFHITTSGNFRTQTLIDAILEIGADRILFSTDWPFENIDHATDWFNATSIAEADRVKIGRTNARRLFKLDGA
modifications: Dicamba decarboxylase variant clone: DC.4.032
As for B9, under setting [1], the “Average Activity (Fold of SEQ ID NO: 109)” value is listed as 2.3 Fold of SEQ ID NO: 109.

B10: R321N: point mutant of SEQ ID NO: 109 (protein)
chain: MAQGKVALEEHFAIPETLQDSAGFVPGDYWKELQHRLLDIQDTRLKLMDAHGIETMILSLNAPAVQAIPDRRKAIEIARRANDVLAEECAKRPDRFLAFAALPLQDPDAATEELQRCVNDLGFVGALVNGFSQEGDGQTPLYYDLPQYRPFWGEVEKLDVPFYLHPRNPLPQDSRIYDGHPWLLGPTWAFAQETAVHALRLMASGLFDEHPRLNIILGHMGEGLPYMMWRIDHRVAWVKLPPRYPAKRRFMDYFNENFHITTSGNFRTQTLIDAILEIGADRILFSTDWPFENIDHASDWFNATSIAEADRVKIGRTNARNLFKLDGA
modifications: Dicamba decarboxylase variant clone: DC.4.032
Regarding B10, the “Average Activity (Fold of SEQ ID NO: 109)” value under setting [1] was 1.7 Fold of SEQ ID NO: 109 and the “Average Activity (Fold of SEQ ID NO: 109)” value under setting [2] is reported as 1.7 Fold of SEQ ID NO: 109.

B11: A328D: point mutant of SEQ ID NO: 109 (protein)
chain: MAQGKVALEEHFAIPETLQDSAGFVPGDYWKELQHRLLDIQDTRLKLMDAHGIETMILSLNAPAVQAIPDRRKAIEIARRANDVLAEECAKRPDRFLAFAALPLQDPDAATEELQRCVNDLGFVGALVNGFSQEGDGQTPLYYDLPQYRPFWGEVEKLDVPFYLHPRNPLPQDSRIYDGHPWLLGPTWAFAQETAVHALRLMASGLFDEHPRLNIILGHMGEGLPYMMWRIDHRVAWVKLPPRYPAKRRFMDYFNENFHITTSGNFRTQTLIDAILEIGADRILFSTDWPFENIDHASDWFNATSIAEADRVKIGRTNARRLFKLDGD
modifications: Dicamba decarboxylase variant clone: DC.4.032
With B11, the “Average Activity (Fold of SEQ ID NO: 109)” value reads like this: under setting [1], 2.3 Fold of SEQ ID NO: 109; under setting [2], 2.3 Fold of SEQ ID NO: 109.

B12: E16A: point mutant of SEQ ID NO: 109 (protein)
chain: MAQGKVALEEHFAIPATLQDSAGFVPGDYWKELQHRLLDIQDTRLKLMDAHGIETMILSLNAPAVQAIPDRRKAIEIARRANDVLAEECAKRPDRFLAFAALPLQDPDAATEELQRCVNDLGFVGALVNGFSQEGDGQTPLYYDLPQYRPFWGEVEKLDVPFYLHPRNPLPQDSRIYDGHPWLLGPTWAFAQETAVHALRLMASGLFDEHPRLNIILGHMGEGLPYMMWRIDHRVAWVKLPPRYPAKRRFMDYFNENFHITTSGNFRTQTLIDAILEIGADRILFSTDWPFENIDHASDWFNATSIAEADRVKIGRTNARRLFKLDGA
modifications: Dicamba decarboxylase variant clone: DC.4.032
Turning to B12, under setting [1], the “Average Activity (Fold of SEQ ID NO: 109)” value is reported as 1.8 Fold of SEQ ID NO: 109.
